This assay has as its target T1, 6xHis-DICER (recombinant wild-type DICER) (human, UniProt Q9UPY3 1-1922).
T1 construct: DICER (endoribonuclease Dicer), human; expressed from pFastBac1-hDICER; See Addgene 89144 and the plasmid list in Supplementary Data 1; also called hDICER; recombinant DICER; source: Sf9 (baculovirus, pFastBac1-hDICER), purified (Ni-NTA)
In words: SPR; Biacore S200; 6xHis-NSUN2 (0.2 μg/mL) immobilised on CM5 chip at pH 4.0 by amine coupling; 2-fold serial dilutions of 6xHis-DICER (0.00117–0.6 µM) in 50 mM TrisHCl (pH 8), 50 mM NaCl, 5 mM MgCl2, 2 mM TCEP, 0.05% Tween20; equilibrium (steady-state) fit. To be noted: both partners purified. On the technique in general: In SPR one partner is held on a chip, and binding of the other changes the refractive index at the surface.

From article PMC12374970, “NSUN2 facilitates DICER cleavage of DNA damage-associated R-loops to promote repair” (Nature Communications, 2025) come the findings set out here.

T1 sequence (Q9UPY3 whole entry): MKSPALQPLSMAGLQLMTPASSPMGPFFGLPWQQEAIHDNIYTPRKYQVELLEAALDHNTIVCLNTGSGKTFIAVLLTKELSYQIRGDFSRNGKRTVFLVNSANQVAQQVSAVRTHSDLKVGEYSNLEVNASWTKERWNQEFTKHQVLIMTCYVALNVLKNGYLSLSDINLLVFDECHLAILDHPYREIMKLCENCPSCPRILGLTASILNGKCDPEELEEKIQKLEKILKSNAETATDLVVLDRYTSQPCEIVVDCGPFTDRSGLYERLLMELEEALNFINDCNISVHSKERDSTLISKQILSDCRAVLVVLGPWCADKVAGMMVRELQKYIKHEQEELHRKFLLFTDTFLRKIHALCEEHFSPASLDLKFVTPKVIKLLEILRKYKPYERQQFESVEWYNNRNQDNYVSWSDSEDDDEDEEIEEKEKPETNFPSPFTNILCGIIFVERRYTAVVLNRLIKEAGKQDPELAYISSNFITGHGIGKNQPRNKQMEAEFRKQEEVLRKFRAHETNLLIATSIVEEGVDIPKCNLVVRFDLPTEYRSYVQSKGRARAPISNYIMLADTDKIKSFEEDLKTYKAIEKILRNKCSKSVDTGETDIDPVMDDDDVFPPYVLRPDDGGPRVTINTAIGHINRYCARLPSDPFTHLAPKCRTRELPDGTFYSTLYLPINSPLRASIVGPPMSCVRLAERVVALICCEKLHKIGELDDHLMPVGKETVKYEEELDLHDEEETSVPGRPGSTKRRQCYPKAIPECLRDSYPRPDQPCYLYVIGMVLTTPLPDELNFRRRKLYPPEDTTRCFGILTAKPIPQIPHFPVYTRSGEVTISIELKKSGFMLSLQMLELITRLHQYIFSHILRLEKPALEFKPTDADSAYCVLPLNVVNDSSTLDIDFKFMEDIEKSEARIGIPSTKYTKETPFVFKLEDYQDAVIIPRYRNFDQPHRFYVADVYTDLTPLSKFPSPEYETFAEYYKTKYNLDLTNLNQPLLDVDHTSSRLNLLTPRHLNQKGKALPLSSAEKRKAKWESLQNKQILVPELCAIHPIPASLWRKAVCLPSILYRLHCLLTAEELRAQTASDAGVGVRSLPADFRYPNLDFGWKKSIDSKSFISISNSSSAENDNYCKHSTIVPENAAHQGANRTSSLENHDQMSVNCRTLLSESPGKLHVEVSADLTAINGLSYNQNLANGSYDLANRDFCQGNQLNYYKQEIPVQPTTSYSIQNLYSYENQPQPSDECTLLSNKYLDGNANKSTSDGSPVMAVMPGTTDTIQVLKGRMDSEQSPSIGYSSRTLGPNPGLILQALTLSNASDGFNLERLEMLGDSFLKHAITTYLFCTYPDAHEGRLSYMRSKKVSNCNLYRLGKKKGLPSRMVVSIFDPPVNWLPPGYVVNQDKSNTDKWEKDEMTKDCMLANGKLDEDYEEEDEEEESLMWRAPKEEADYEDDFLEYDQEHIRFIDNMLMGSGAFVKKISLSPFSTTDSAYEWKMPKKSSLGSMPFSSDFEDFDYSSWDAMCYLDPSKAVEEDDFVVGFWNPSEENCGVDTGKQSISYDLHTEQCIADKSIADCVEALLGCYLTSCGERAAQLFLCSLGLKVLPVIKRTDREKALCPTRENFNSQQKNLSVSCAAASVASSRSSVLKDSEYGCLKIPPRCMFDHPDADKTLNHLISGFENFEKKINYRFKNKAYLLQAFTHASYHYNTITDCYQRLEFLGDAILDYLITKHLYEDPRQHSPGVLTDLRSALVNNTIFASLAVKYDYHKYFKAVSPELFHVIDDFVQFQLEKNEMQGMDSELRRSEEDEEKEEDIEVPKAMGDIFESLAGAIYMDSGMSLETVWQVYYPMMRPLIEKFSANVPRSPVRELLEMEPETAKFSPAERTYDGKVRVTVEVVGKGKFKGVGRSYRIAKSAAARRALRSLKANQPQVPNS

B1: 6xHis-NSUN2 (recombinant wild-type NSUN2) (enzyme, human, UniProt Q08J23 1-767, looked up)
chain: MGRRSRGRRLQQQQRPEDAEDGAEGGGKRGEAGWEGGYPEIVKENKLFEHYYQELKIVPEGEWGQFMDALREPLPATLRITGYKSHAKEILHCLKNKYFKELEDLEVDGQKVEVPQPLSWYPEELAWHTNLSRKILRKSPHLEKFHQFLVSETESGNISRQEAVSMIPPLLLNVRPHHKILDMCAAPGSKTTQLIEMLHADMNVPFPEGFVIANDVDNKRCYLLVHQAKRLSSPCIMVVNHDASSIPRLQIDVDGRKEILFYDRILCDVPCSGDGTMRKNIDVWKKWTTLNSLQLHGLQLRIATRGAEQLAEGGRMVYSTCSLNPIEDEAVIASLLEKSEGALELADVSNELPGLKWMPGITQWKVMTKDGQWFTDWDAVPHSRHTQIRPTMFPPKDPEKLQAMHLERCLRILPHHQNTGGFFVAVLVKKSSMPWNKRQPKLQGKSAETRESTQLSPADLTEGKPTDPSKLESPSFTGTGDTEIAHATEDLENNGSKKDGVCGPPPSKKMKLFGFKEDPFVFIPEDDPLFPPIEKFYALDPSFPRMNLLTRTTEGKKRQLYMVSKELRNVLLNNSEKMKVINTGIKVWCRNNSGEEFDCAFRLAQEGIYTLYPFINSRIITVSMEDVKILLTQENPFFRKLSSETYSQAKDLAKGSIVLKYEPDSANPDALQCPIVLCGWRGKASIRTFVPKNERLHYLRMMGLEVLGEKKKEGVILTNESAASTGQPDNDVTEGQRAGEPNSPDAEEANSPDVTAGCDPAGVHPPR
notes: RNA m5C-methyltransferase NSUN2, human; The plasmid list is in Supplementary Data 1; also called NSUN2 wt; recombinant NSUN2; source: Sf9 (baculovirus, pFastBac1-NSUN2), purified (Ni-NTA)
For B1, the Kd is roughly 500 nM.

One may read the Kd as the constant that tells how readily two partners part at equilibrium.
